Kd data for two molecules are collected here from publication PMC6945527 (European Heart Journal, 2019).

The target of experiment [1] is CAP1 of the surface plasmon resonance assay and of the binding-affinity measurement (UniProt Q01518).
Experiment [2] has as its target PCSK9 WT of the binding-affinity measurement (Figure S2) (human, UniProt Q8NBP7 31-692).
The target of experiment [3] is PCSK9 A514T of the binding-affinity measurement (Figure S2) (human, UniProt Q8NBP7 31-692, A514T).
Experiment [4] deals with PCSK9 S668RG670E of the binding-affinity measurement (Figure S2) (human, UniProt Q8NBP7 31-692, S668R | G670E).
Chain of PCSK9 S668RG670E of the binding-affinity measurement (Figure S2) (Q8NBP7 31-692 S668R/G670E): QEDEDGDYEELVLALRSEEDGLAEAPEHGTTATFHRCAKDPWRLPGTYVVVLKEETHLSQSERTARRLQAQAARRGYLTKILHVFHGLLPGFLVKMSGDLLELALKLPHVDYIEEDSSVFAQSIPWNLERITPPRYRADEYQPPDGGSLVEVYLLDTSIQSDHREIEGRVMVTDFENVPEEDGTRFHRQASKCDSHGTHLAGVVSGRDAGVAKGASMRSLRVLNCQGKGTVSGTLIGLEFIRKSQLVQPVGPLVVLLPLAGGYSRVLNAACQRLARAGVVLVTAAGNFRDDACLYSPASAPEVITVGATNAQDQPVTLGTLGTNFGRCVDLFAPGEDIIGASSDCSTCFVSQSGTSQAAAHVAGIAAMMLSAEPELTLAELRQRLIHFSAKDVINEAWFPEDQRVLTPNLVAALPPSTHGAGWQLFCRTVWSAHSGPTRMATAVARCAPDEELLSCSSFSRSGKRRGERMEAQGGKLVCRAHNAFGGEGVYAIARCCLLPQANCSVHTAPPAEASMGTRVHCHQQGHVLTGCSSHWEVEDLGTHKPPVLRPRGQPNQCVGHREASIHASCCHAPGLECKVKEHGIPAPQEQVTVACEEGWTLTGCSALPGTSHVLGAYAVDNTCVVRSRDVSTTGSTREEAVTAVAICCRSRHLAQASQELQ

Broadly, the Kd is the equilibrium constant for the complex coming apart. A high value points to lower affinity.

Chain of PCSK9 A514T of the binding-affinity measurement (Figure S2) (Q8NBP7 31-692 A514T): as the sequence (Q8NBP7 31-692 S668R/G670E) above, with A484T, R638S, E640G counted along it
Chain of PCSK9 WT of the binding-affinity measurement (Figure S2) (Q8NBP7 31-692): as the sequence (Q8NBP7 31-692 S668R/G670E) above, with R638S, E640G counted along it

Take “PCSK9 G670E of the binding-affinity measurement (Figure S2) (from UniProt Q8NBP7 31-692) (natural protein)”: the equilibrium dissociation constant (Kd) in experiment [1] worked out at 960 nM.

B1: CAP1 of the surface plasmon resonance assay and of the binding-affinity measurement (natural protein)
chain: MADMQNLVERLERAVGRLEAVSHTSDMHRGYADSPSKAGAAPYVQAFDSLLAGPVAEYLKISKEIGGDVQKHAEMVHTGLKLERALLVTASQCQQPAENKLSDLLAPISEQIKEVITFREKNRGSKLFNHLSAVSESIQALGWVAMAPKPGPYVKEMNDAAMFYTNRVLKEYKDVDKKHVDWVKAYLSIWTELQAYIKEFHTTGLAWSKTGPVAKELSGLPSGPSAGSCPPPPPPCPPPPPVSTISCSYESASRSSLFAQINQGESITHALKHVSDDMKTHKNPALKAQSGPVRSGPKPFSAPKPQTSPSPKRATKKEPAVLELEGKKWRVENQENVSNLVIEDTELKQVAYIYKCVNTTLQIKGKINSITVDNCKKLGLVFDDVVGIVEIINSKDVKVQVMGKVPTISINKTDGCHAYLSKNSLDCEIVSAKSSEMNVLIPTEGGDFNEFPVPEQFKTLWNGQKLVTTVTEIAG
For B1, the results for the dissociation constant (Kd) in experiment [2], in experiment [3] and in experiment [4] were 450 nM, 110 nM and 2320 nM, respectively.
